Source: article doi:10.1101/2022.02.24.481830 (bioRxiv, 2022)

Legend:
H3 COBRA TJ5 HA protein = H3 COBRA TJ5 HA protein (Influenza A virus H3, synthetic …)
H3 COBRA J4 HA protein = H3 COBRA J4 HA protein (Influenza A virus H3, synthetic …)
H3 COBRA NG2 HA protein = H3 COBRA NG2 HA protein (Influenza A virus H3, synthetic …)

Measured: binding result

B1: TJ5-16 (antibody, V domains shown)
VH: EVQLVQSGAEVKKPGASVKVSCKASGYTFTGYYIYWVRQAPGQGLEWMGWINPNGGGTNYAQKFQGRVTMTRDTSITTAYMELSRLRSDDSAVYYCAARAGPGTQDAQTIDFWGQGTLVTVSS
VL: SYELTQPPSVSVSPGQTARITCSGDALPKQYGYWYQQKPGQAPVLVIYKDSERPSGIPERFSGSSSGTTVTLTISGVQAEDEADYYCQSADSSGSYWVFGGGTKLT
binds: all assays above
